Values of other authors as cited in patent US20220017621A1, “Combination Therapy for Cancer” (Merck Patent GmbH, priority 2016, published 2022).

Biological target: TGFβ1 (Homo sapiens, UniProt P01137)
Conditions: binding of TGFβ1

Sequence of TGFβ1 (P01137 279-390 limits assumed, species assumed): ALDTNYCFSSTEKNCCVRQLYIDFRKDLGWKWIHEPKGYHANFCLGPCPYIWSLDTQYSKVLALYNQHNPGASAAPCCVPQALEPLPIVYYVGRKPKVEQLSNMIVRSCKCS

Kd: 0.2 nM
B1: recombinant soluble TGFβRII: recombinant soluble extracellular domain of TGFβRII, from the literature (Lin et al.) (protein, UniProt P37173 23-166, looked up)
extracellular domain: TIPPHVQKSVNNDMIVTDNNGAVKFPQLCKFCDVRFSTCDNQKSCMSNCSITSICEKPQEVCVAVWRKNDENITLETVCHDPKLPYHDFILEDAASPKCIMKEKKKPGETFFMCSCSSDECNDNIIFSEEYNTSNPDLLLVIFQ
modifications: extracellular domain
